Consider four molecules from patent publication US20120082688A1, “In Vitro Generation of Myeloid Derived Suppressor Cells” (MOUNT SINAI SCHOOL OF MEDICINE, priority 2008, published 2012).

In test [1] the test system is HS-MDSC- and TD-MDSC-mediated suppression of T-cell proliferation. Nature of the test: Suppression assay with iNOS inhibitor / arginase inhibitor: MDSCs co-incubated with B6 splenocytes, anti-CD3/anti-CD28, [3H]-thymidine. Type of test: cell-based, mouse. The protocol: The suppressive activity of MDSCs was assessed either by co-culturing 1×10^5 129SvEv (using B6 for HSC-MDSCs comparison) splenocytes with various numbers of CD115^+ cells or […] in the presence of anti-CD3/anti-CD28 (0.5 μg/ml) or by co-culturing 2×10^5 129SvEv splenocytes (responder) with an equal number of irradiated (25 Gy) BALB/c splenocytes (stimulator) in the presence of various numbers of CD115^+ or CD115^− cells for 4 days. [^3H]-thymidine was added for the last 8 hours of incubation. For Treg induction, 4×10^6/well of 129SvEv (B6 for HSC-MDSCs) splenocytes and 1×10^6 CD115^+ or CD115^− cells were cocultured for 5 days in the presence of anti-CD3/anti-CD28 (0.5 μg/ml). Foxp3 expression was determined by intracellular staining and NO level in the supernatant was measured by Greiss reagents (Sigma-Aldrich, St. Louis, Mo.).
To delineate which of the aforementioned suppressive mechanism(s) play a major role, the functional activity of HS-MDSCs was evaluated when specific pathway(s) were interfered. To evaluate the role of iNOS, HS-MDSCs (developed from Lin− B6 BM cells) or TD-MDSCs were co-incubated with B6 splenocytes at a 1:2 ratio in the absence or presence of various concentrations of L-NMMA (L) or NOHA (N), or combination of L-NMMA and NOHA. Cells were stimulated with anti-CD3/anti-CD28 and [3H]-thymidine was pulsed for the final 8 hours of a 3-day culture.

Another test concerns HoxB4 ES cells. In words: Differentiation of HoxB4 ES cells on OP9 stroma in M2 cytokine mix with added cytokines, FACS. The test is classed as cell-based, mouse. The protocol:
Next, EB-derived cells were subjected to further differentiation by co-culturing them with OP9 stroma, an M-CSF-deficient cell line that has been widely used for in vitro differentiation of ES cells. For this, day 6 EBs (except otherwise specified) were trypsinized, and dissociated cells were seeded onto semiconfluent OP9 monolayers (irradiated immediately before coculture) at a density of 1×10^5/ml (2 ml/well, 6-well plate), and cultured in medium containing IMDM, 15% FCS (BenchMark, Gemcell), 2 mM L-glutamine, 100 U/mL penicillin and 100 μg/mL streptomycin, 1 ug/ml doxycycline, 1.5×10^−4M MTG, plus M1 cytokine mix composed of 1% c-kit Ligand (KL; CM), […] murine IL-6, and 0.5% WEHI (IL-3, CM). 2 days later, the medium was removed and replaced with 3 ml of fresh medium containing M2 cytokine mix consisting of 1% KL supernant, 0.5% murine thrombopoietin (TPO, CM), 40 ng/ml murine VEGF, 50 ng/ml murine Flt-3L or with medium containing M2 plus 10 ng/ml murine M-CSF (or M2+M-CSF) (all mouse recombinant cytokines were purchased from Peprotec Inc.), and medium was changed every other day thereafter. Unless otherwise specified, non-adherent and loosely attached cells were harvested after 10 days coculture in M2+M-CSF and used for morphologic, phenotypic, developmental, and functional analysis.
To enhance the production of ES cell-derived myeloid cells, additional cytokines were tested, including the colony-stimulating factor family members M-CSF and GM-CSF. […] For experiments in FIGS. 1C and D, Hoxb4 ES cells were differentiated with the same procedure as described in FIG. 1A, but in the last step cells were cultured for 10 day in M2 or M2 supplanted with M-CSF or GM-CSF (FIG. 1C) or M2 plus various concentration of M-CSF (FIG. 1D).

[2] abbreviates: cytokine added to M2 cultures, 10 days.

“Also recorded” adds a separate entry of the source.

For the molecule `CNC(=N)NCCC[C@H](N)C(=O)O` [L-NMMA, N^G-monomethyl-L-arginine], the “reversal of MDSC suppression of T cells” value in test [1] (5 μM, MDSC:splenocyte 1:2, P<0.05 HSC MDSC, P<0.01 TD-MDSC) is reported as “substantially reversed”. The “reversal of suppression of HS- and TD-MDSCs against T-cell proliferation” value in test [1] (various concentrations, dose-dependent manner) is reported as “partially but significantly reversed”.

Take `N=C(NO)NCCC[C@H](N)C(=O)O` [NOHA]: in test [1] (500 μM, MDSC:splenocyte 1:2, P>0.05), the “interference with suppressive activity of HSC-MDSC or TD-MDSC” value is given as “did not interfere significantly; also recorded: minimal effects”.

B1: macrophage colony-stimulating factor (protein, UniProt P07141 33-552, looked up)
Macrophage colony-stimulating …: KEVSEHCSHMIGNGHLKVLQQLIDSQMETSCQIAFEFVDQEQLDDPVCYLKKAFFLVQDIIDETMRFKDNTPNANATERLQELSNNLNSCFTKDYEEQNKACVRTFHETPLQLLEKIKNFFNETKNLLEKDWNIFTKNCNNSFAKCSSRDVVTKPDCNCLYPKATPSSDPASASPHQPPAPSMAPLAGLAWDDSQRTEGSSLLPSELPLRIEDPGSAKQRPPRSTCQTLESTEQPNHGDRLTEDSQPHPSAGGPVPGVEDILESSLGTNWVLEEASGEASEGFLTQEAKFSPSTPVGGSIQAETDRPRALSASPFPKSTEDQKPVDITDRPLTEVNPMRPIGQTQNNTPEKTDGTSTLREDHQEPGSPHIATPNPQRVSNSATPVAQLLLPKSHSWGIVLPLGELEGKRSTRDRRSPAELEGGSASEGAARPVARFNSIPLTDTGHVEQHEGSSDPQIPESVFHLLVPGIILVLLTVGGLLFYKWKWRSHRDPQTLDSSVGRPEDSSLTQDEDRQVELPV
notes: murine recombinant cytokine added to M2 cocktail
Regarding B1, the “production of both CD115^+ populations” value with HoxB4 ES cells (M2 plus cytokine, 10 days, dose-dependent) is “significantly augmented”. The “increase of frequency of both CD115 positive populations” value in the test on HoxB4 ES cells (added along with M2) is recorded as “over 2 fold”. In the test with HoxB4 ES cells (higher concentration, 20 ng/ml), the “percentages of CD115^+ cells” value was “decreased”.

B2: granulocyte macrophage colony stimulating factor (protein, UniProt P01587 18-141, looked up)
Granulocyte-macrophage …: APTRSPITVTRPWKHVEAIKEALNLLDDMPVTLNEEVEVVSNEFSFKKLTCVQTRLKIFEQGLRGNFTKLKGALNMTASYYQTYCPPTPETDCETQVTTYADFIDSLKTFLTDIPFECKKPGQK
notes: colony-stimulating factor family cytokine added to M2 cultures
As to B2, in the test with HoxB4 ES cells (setting [2]), the “change of CD115+Ly-6C^+ cells” value is on record as “dramatic decrease” and the “change of CD115^−Ly-6C^+ cells” value was “marked increase”.
